{"source": "paper PMC3906981", "data": [{"target": "HA-tagged PAK2 (p21 protein (Cdc42/Rac)-activated kinase) (UniProt Q13177)", "sequence (Q13177 whole entry)": "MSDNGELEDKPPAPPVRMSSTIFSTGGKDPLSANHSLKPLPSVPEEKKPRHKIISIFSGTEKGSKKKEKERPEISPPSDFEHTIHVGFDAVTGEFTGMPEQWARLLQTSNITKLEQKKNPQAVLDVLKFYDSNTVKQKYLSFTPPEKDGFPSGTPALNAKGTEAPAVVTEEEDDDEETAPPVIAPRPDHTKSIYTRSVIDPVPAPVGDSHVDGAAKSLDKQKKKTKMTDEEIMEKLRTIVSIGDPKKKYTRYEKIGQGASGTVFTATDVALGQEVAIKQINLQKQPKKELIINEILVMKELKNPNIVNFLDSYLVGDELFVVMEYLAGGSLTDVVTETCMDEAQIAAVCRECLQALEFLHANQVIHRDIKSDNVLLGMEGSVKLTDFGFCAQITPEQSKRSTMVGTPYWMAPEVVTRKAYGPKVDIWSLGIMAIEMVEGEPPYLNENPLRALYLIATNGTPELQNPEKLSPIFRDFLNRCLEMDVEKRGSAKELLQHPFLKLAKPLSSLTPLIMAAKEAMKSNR", "assay": "co-immunoprecipitation (anti-AU1) with in vitro kinase assay, densitometric quantification", "design": "reference not given here", "settings": "cells transfected with Nef, CDC42V12 and PAK2-HA; parent: 114", "values": [{"substance": "AU1-tagged SIVblu Nef, wild-type R129A; R130A", "response": 0}]}, {"target": "HA-tagged PAK2 (p21 protein (Cdc42/Rac)-activated kinase) (UniProt Q13177)", "assay": "co-immunoprecipitation (anti-AU1) with in vitro kinase assay, densitometric quantification", "design": "reference not given here", "settings": "cells transfected with Nef, CDC42V12 and PAK2-HA; parent: 160", "values": [{"substance": "AU1-tagged SIVmac239 Nef, wild-type P104A", "response": 123}, {"substance": "AU1-tagged SIVmac239 Nef, wild-type P107A", "response": 59}, {"substance": "AU1-tagged SIVmac239 Nef, wild-type Y221R", "response": 26}, {"substance": "AU1-tagged SIVmac239 Nef, wild-type P104A; P107A", "response": 34}, {"substance": "AU1-tagged SIVmac239 Nef, wild-type H121R", "response": 23}, {"substance": "AU1-tagged SIVmac239 Nef, wild-type H121R; Y221R", "response": 0}]}]}
